{"source": "patent US20120034160A1", "about": "(AbbVie / Abbott, published 2012)", "binders": {"B1": {"name": "DVD1595 (bispecific antibody, human IgG1, kappa)", "heavy": "not shown", "light": "DTVVTQSPAFLSVTPGEKVTITCITSTDIDVDMNWYQQKPDQPPKLLISQGNTLRPGVPSRFSSSGSGTDFTFTISSLEAEDAATYYCLQSDNLPLTFGQGTKLEIKRTVAAPSVFIFPPDIQMTQSPSSLSASVGDRVTITCRASSGIISYIDWFQQKPGKAPKRLIYATFDLASGVPSRFSGSGSGTDYTLTISSLQPEDFATYYCRQVGSYPETFGQGTKLEIKRTVAAPSVFIFPPSDEQLKSGTASVVCLLNNFYPREAKVQWKVDNALQSGNSQESVTEQDSKDSTYSLSSTLTLSKADYEKHKVYACEVTHQGLSSPVTKSFNRGEC"}, "B2": {"name": "DVD1596 (bispecific antibody, human IgG1, kappa)", "heavy": "not shown", "light": "DIQMTQSPSSLSASVGDRVTITCRASSGIISYIDWFQQKPGKAPKRLIYATFDLASGVPSRFSGSGSGTDYTLTISSLQPEDFATYYCRQVGSYPETFGQGTKLEIKRTVAAPSVFIFPPDTVVTQSPAFLSVTPGEKVTITCITSTDIDVDMNWYQQKPDQPPKLLISQGNTLRPGVPSRFSSSGSGTDFTFTISSLEAEDAATYYCLQSDNLPLTFGQGTKLEIKRTVAAPSVFIFPPSDEQLKSGTASVVCLLNNFYPREAKVQWKVDNALQSGNSQESVTEQDSKDSTYSLSSTLTLSKADYEKHKVYACEVTHQGLSSPVTKSFNRGEC"}, "B3": {"name": "DVD1590 (bispecific antibody, human IgG1, kappa)", "heavy": "not shown", "light": "DIQMTQSPSSLSASVGDRVTITCRASSGIISYIDWFQQKPGKAPKRLIYATFDLASGVPSRFSGSGSGTDYTLTISSLQPEDFATYYCRQVGSYPETFGQGTKLEIKRTVAAPSVFIFPPDIQMTQSPSSLSASVGDRVTITCRASGNIHNYLTWYQQTPGKAPKLLIYNAKTLADGVPSRFSGSGSGTDYTFTISSLQPEDIATYYCQHFWSIPYTFGQGTKLQITRTVAAPSVFIFPPSDEQLKSGTASVVCLLNNFYPREAKVQWKVDNALQSGNSQESVTEQDSKDSTYSLSSTLTLSKADYEKHKVYACEVTHQGLSSPVTKSFNRGEC"}, "B4": {"name": "DVD1592 (bispecific antibody, human IgG1, kappa)", "heavy": "not shown", "light": "B3 light"}, "B5": {"name": "DVD1593 (bispecific antibody, human IgG1, kappa)", "heavy": "not shown", "light": "DTQVTQSPSSLSASVGDRVTITCITSTDIDVDMNWYQQKPGKPPKLLISQGNTLRPGVPSRFSSSGSGTDFTFTISSLQPEDFATYYCLQSDNLPLTFGQGTKLEIKRTVAAPSVFIFPPDIQMTQSPSSLSASVGDRVTITCRASSGIISYIDWFQQKPGKAPKRLIYATFDLASGVPSRFSGSGSGTDYTLTISSLQPEDFATYYCRQVGSYPETFGQGTKLEIKRTVAAPSVFIFPPSDEQLKSGTASVVCLLNNFYPREAKVQWKVDNALQSGNSQESVTEQDSKDSTYSLSSTLTLSKADYEKHKVYACEVTHQGLSSPVTKSFNRGEC"}, "B6": {"name": "DVD1597 (bispecific antibody, human IgG1, kappa)", "heavy": "not shown", "light": "B5 light with D1E, Q3T"}, "B7": {"name": "DVD1288 (bispecific antibody, human IgG1, kappa)", "heavy": "not shown", "light": "DTVVTQSPAFLSVTPGEKVTITCITSTDIDVDMNWYQQKPDQPPKLLISQGNTLRPGVPSRFSSSGSGTDFTFTISSLEAEDAATYYCLQSDNLPLTFGQGTKLEIKRTVAAPEIVLTQSPDFQSVTPKEKVTITCRASQNIGSELHWYQQKPDQSPKLLIKYASHSISGVPSRFSGSGSGTDFTLTINGLEAEDAATYYCHQSDTLPHTFGQGTKVDIKRTVAAPSVFIFPPSDEQLKSGTASVVCLLNNFYPREAKVQWKVDNALQSGNSQESVTEQDSKDSTYSLSSTLTLSKADYEKHKVYACEVTHQGLSSPVTKSFNRGEC"}, "B8": {"name": "DVD1289 (bispecific antibody, human IgG1, kappa)", "heavy": "not shown", "light": "EIVLTQSPDFQSVTPKEKVTITCRASQNIGSELHWYQQKPDQSPKLLIKYASHSISGVPSRFSGSGSGTDFTLTINGLEAEDAATYYCHQSDTLPHTFGQGTKVDIKRTVAAPDTVVTQSPAFLSVTPGEKVTITCITSTDIDVDMNWYQQKPDQPPKLLISQGNTLRPGVPSRFSSSGSGTDFTFTISSLEAEDAATYYCLQSDNLPLTFGQGTKLEIKRTVAAPSVFIFPPSDEQLKSGTASVVCLLNNFYPREAKVQWKVDNALQSGNSQESVTEQDSKDSTYSLSSTLTLSKADYEKHKVYACEVTHQGLSSPVTKSFNRGEC"}, "B9": {"name": "DVD1291 (bispecific antibody, human IgG1, kappa)", "heavy": "not shown", "light": "EIVLTQSPDFQSVTPKEKVTITCRASQNIGSELHWYQQKPDQSPKLLIKYASHSISGVPSRFSGSGSGTDFTLTINGLEAEDAATYYCHQSDTLPHTFGQGTKVDIKRTVAAPETTVTQSPSSLSASVGDRVTITCITSTDIDVDMNWYQQKPGKPPKLLISQGNTLRPGVPSRFSSSGSGTDFTFTISSLQPEDFATYYCLQSDNLPLTFGQGTKLEIKRTVAAPSVFIFPPSDEQLKSGTASVVCLLNNFYPREAKVQWKVDNALQSGNSQESVTEQDSKDSTYSLSSTLTLSKADYEKHKVYACEVTHQGLSSPVTKSFNRGEC"}, "B10": {"name": "DVD1290 (bispecific antibody, human IgG1, kappa)", "heavy": "not shown", "light": "ETTVTQSPSSLSASVGDRVTITCITSTDIDVDMNWYQQKPGKPPKLLISQGNTLRPGVPSRFSSSGSGTDFTFTISSLQPEDFATYYCLQSDNLPLTFGQGTKLEIKRTVAAPEIVLTQSPDFQSVTPKEKVTITCRASQNIGSELHWYQQKPDQSPKLLIKYASHSISGVPSRFSGSGSGTDFTLTINGLEAEDAATYYCHQSDTLPHTFGQGTKVDIKRTVAAPSVFIFPPSDEQLKSGTASVVCLLNNFYPREAKVQWKVDNALQSGNSQESVTEQDSKDSTYSLSSTLTLSKADYEKHKVYACEVTHQGLSSPVTKSFNRGEC"}, "B11": {"name": "DVD1594 (bispecific antibody, human IgG1, kappa)", "heavy": "not shown", "light": "DIQMTQSPSSLSASVGDRVTITCRASSGIISYIDWFQQKPGKAPKRLIYATFDLASGVPSRFSGSGSGTDYTLTISSLQPEDFATYYCRQVGSYPETFGQGTKLEIKRTVAAPSVFIFPPDTQVTQSPSSLSASVGDRVTITCITSTDIDVDMNWYQQKPGKPPKLLISQGNTLRPGVPSRFSSSGSGTDFTFTISSLQPEDFATYYCLQSDNLPLTFGQGTKLEIKRTVAAPSVFIFPPSDEQLKSGTASVVCLLNNFYPREAKVQWKVDNALQSGNSQESVTEQDSKDSTYSLSSTLTLSKADYEKHKVYACEVTHQGLSSPVTKSFNRGEC"}, "B12": {"name": "DVD1598 (bispecific antibody, human IgG1, kappa)", "heavy": "not shown", "light": "B11 light with D121E, Q123T"}, "B13": {"name": "DVD1589 (bispecific antibody, human IgG1, kappa)", "heavy": "not shown", "light": "DIQMTQSPSSLSASVGDRVTITCRASGNIHNYLTWYQQTPGKAPKLLIYNAKTLADGVPSRFSGSGSGTDYTFTISSLQPEDIATYYCQHFWSIPYTFGQGTKLQITRTVAAPSVFIFPPDIQMTQSPSSLSASVGDRVTITCRASSGIISYIDWFQQKPGKAPKRLIYATFDLASGVPSRFSGSGSGTDYTLTISSLQPEDFATYYCRQVGSYPETFGQGTKLEIKRTVAAPSVFIFPPSDEQLKSGTASVVCLLNNFYPREAKVQWKVDNALQSGNSQESVTEQDSKDSTYSLSSTLTLSKADYEKHKVYACEVTHQGLSSPVTKSFNRGEC"}, "B14": {"name": "DVD1591 (bispecific antibody, human IgG1, kappa)", "heavy": "not shown", "light": "B13 light"}}, "note": "Substitutions are numbered along the chain they refer to.", "data": [{"target": "T1, Recombinant Human IL-17 (human, UniProt Q16552 20-155, limits assumed)", "T1 sequence (looked up)": "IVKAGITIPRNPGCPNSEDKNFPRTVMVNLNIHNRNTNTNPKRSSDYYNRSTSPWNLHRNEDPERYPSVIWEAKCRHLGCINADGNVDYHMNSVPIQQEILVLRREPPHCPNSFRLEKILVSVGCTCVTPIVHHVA", "experiment": "cell-based or functional assay", "units": {"C-terminal VD IL-17 Neutralization Assay EC50": "nM", "N-terminal VD IL-17 Neutralization Assay EC50": "nM"}, "values": [{"binder": "B1", "C-terminal VD IL-17 Neutralization Assay EC50": 0.0019}, {"binder": "B2", "N-terminal VD IL-17 Neutralization Assay EC50": 0.0007}, {"binder": "B3", "N-terminal VD IL-17 Neutralization Assay EC50": 0.0016}, {"binder": "B4", "N-terminal VD IL-17 Neutralization Assay EC50": 0.0117}, {"binder": "B5", "C-terminal VD IL-17 Neutralization Assay EC50": 0.001}, {"binder": "B6", "C-terminal VD IL-17 Neutralization Assay EC50": 0.0008}, {"binder": "B7", "C-terminal VD IL-17 Neutralization Assay EC50": 0.111}, {"binder": "B8", "N-terminal VD IL-17 Neutralization Assay EC50": 0.096}, {"binder": "B9", "N-terminal VD IL-17 Neutralization Assay EC50": 0.0062}, {"binder": "B10", "C-terminal VD IL-17 Neutralization Assay EC50": 0.0181}, {"binder": "B11", "N-terminal VD IL-17 Neutralization Assay EC50": 0.0025}, {"binder": "B12", "N-terminal VD IL-17 Neutralization Assay EC50": 0.0053}, {"binder": "B13", "C-terminal VD IL-17 Neutralization Assay EC50": 0.0011}, {"binder": "B14", "C-terminal VD IL-17 Neutralization Assay EC50": 0.0393}]}, {"target": "Recombinant Human IL-1β (human, UniProt P01584 117-269)", "experiment": "cell-based or functional assay", "units": {"N-Terminal VD IL-1β Neutralization Assay EC50": "nM", "C-Terminal VD IL-1β Neutralization Assay EC50": "nM"}, "values": [{"binder": "B1", "N-Terminal VD IL-1β Neutralization Assay EC50": 0.204}, {"binder": "B2", "C-Terminal VD IL-1β Neutralization Assay EC50": 3.44}, {"binder": "B3", "C-Terminal VD IL-1β Neutralization Assay EC50": 1.6}, {"binder": "B4", "C-Terminal VD IL-1β Neutralization Assay EC50": 0.109}, {"binder": "B5", "N-Terminal VD IL-1β Neutralization Assay EC50": 0.184}, {"binder": "B6", "N-Terminal VD IL-1β Neutralization Assay EC50": 0.326}, {"binder": "B7", "N-Terminal VD IL-1β Neutralization Assay EC50": 0.212}, {"binder": "B8", "C-Terminal VD IL-1β Neutralization Assay EC50": 18.8}, {"binder": "B9", "C-Terminal VD IL-1β Neutralization Assay EC50": "> 100"}, {"binder": "B10", "N-Terminal VD IL-1β Neutralization Assay EC50": 0.252}, {"binder": "B11", "C-Terminal VD IL-1β Neutralization Assay EC50": 9.1}, {"binder": "B12", "C-Terminal VD IL-1β Neutralization Assay EC50": 11.9}, {"binder": "B13", "N-Terminal VD IL-1β Neutralization Assay EC50": 0.0068}, {"binder": "B14", "N-Terminal VD IL-1β Neutralization Assay EC50": 0.0023}]}]}
